Source: the supplement of paper PMC9732359
± gives the uncertainty stated by the source.

Experiment: protein stability index of a GFP-peptide fusion (yeast GPS) (PSI 1-4); higher = more stable; sorted into four equal gates, so the index is relative within each strain
Conditions: pdr5∆
How it was run: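 The protein stability index combines read frequencies across sorting gates, each weighted by its gate number and then summed. To obtain those frequencies, a pooled yeast library of GFP fusions to tiled 17-residue yeast protein peptides, on a plasmid also expressing Cherry, was grown to mid-log phase in leucine-free medium. The cells were sorted into four equal gates by GFP/Cherry ratio before plasmid amplification by PCR and Illumina sequencing.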

Sequence | protein stability index
LVALKRNADELSSYQKK [PRE5] | 2.43 ± 0.041
LVDLVSHFSPDIKAAVD [ITC1] | 1.99 ± 0.071
LVEVEDEKIEAIKKKEK [SRB7] | 3.09 ± 0.16

Same assay, conditions: san1∆

Sequence | protein stability index
LLENSVDKNFDKLELYV [MTW1] | 3.15 ± 0.065
LLEQDTSTEKLYKLNDK [PRE9] | 2.91 ± 0.058
LLFFNFSHSLTTILSFS [NUT1] | 1.46 ± 0.059
LLGNCYSLRLINKEIFH [SRB8] | 1.46 ± 0.17
LLHEMTQTYMQMIELNR [GRR1] | 2.2 ± 0.088
LLNRIPRMYHIGLRQFQ [POP1] | 1.72 ± 0.18
LLNTDHTLDPSLLESGS [RPO21] | 2.99 ± 0.079
LLPQWDDDQIESLKKSP [ARP9] | 3.1 ± 0.051
LLQSSIINKLIHIQSKE [POP3] | 1.91 ± 0.058
LLQVNKTFCEDPFSDVD [GRR1] | 3.32 ± 0.035
LLRRLKKDVEKELPDKV [SNF2] | 3.36 ± 0.092
LLSFVLGVVFGRGGSGW [YML031W/NDC1] | 2.31 ± 0.077
LLSLINSTHLLPLQPIE [SNF12] | 3.04 ± 0.052
LLTAKHGMTLRESFEDN [RPO21] | 2.6 ± 0.086
LLTVTPGPRLLYENIAS [RPN10] | 1.95 ± 0.086
LLVDQKQLNSLRRSGQI [SMD1] | 2.96 ± 0.061
LLVGLIKTFYWLEQFLS [NUT1] | 1.34 ± 0.14
LLYLRLKNIYVSADDFV [PRP8] | 1.27 ± 0.097
LMKCCHEAYSIIEKITD [RRP45] | 2.56 ± 0.086
LMMVEKVPDSTYDMVGG [RPT6] | 2.84 ± 0.069
LMRSCFYLMVSSLSFGP [YJL039C/NUP192] | 1.76 ± 0.075
LMYSITFHHHGRQTVLI [SRB2] | 3.18 ± 0.06
LNDLVESSFIEIDDTEA [BRR2] | 2.13 ± 0.069
LNDMNTEISGLKNVNKR [SMC3] | 3.06 ± 0.058

Sequence | protein stability index
LNDRKVLFAAYKVEHPF [RPB11] | 2.03 ± 0.084
LNDTTEKSKALESEIAS [SMC2] | 3.43 ± 0.086
LNDVVSFLFSAIPLQQV [SWI1] | 1.94 ± 0.057
LNECLKTIQINNEKVVQ [YML031W/NDC1] | 1.29 ± 0.16
LNEKFQELRKKVNPNIM [SMC2] | 2.98 ± 0.2
LNELETLIKKKQDEKKS [SMC2] | 3.19 ± 0.063
LNELHPTLPTNHNKTKL [PRP8] | 2.84 ± 0.056
LNESRSQHKKILEELDF [SMC3] | 3.01 ± 0.069
LNITTVFSHAQTAVTCE [RPS27A] | 2.08 ± 0.063
LNLEQVTLNKYCSGNIY [YJL039C/NUP192] | 2.59 ± 0.052
LNLTGPKVPEDIYKSHL [RPN1] | 2.85 ± 0.1
LNRFNFQNTNTRSALKL [QCR2] | 2.83 ± 0.075
LNRSHFATTKAECISLI [ECM29] | 1.69 ± 0.092
LNSYWVNQDSTYKYFEV [RPL15A] | 3.32 ± 0.041
LNTLLVTSADSNLKISL [SWI1] | 2.89 ± 0.054
LNVQVWHIEETGEWFSS [ITC1] | 2.39 ± 0.059
LPDEKSDAMSIDEEDKD [YCG1] | 2.94 ± 0.12
LPILPIQRLRLLREKQR [YOR098C/NUP1] | 1.17 ± 0.25
LPKFLTVQYVRFFWKRS [UBP6] | 1.24 ± 0.085
LPKVRIRTRRAAELLDK [DIS3] | 1.3 ± 0.17
LPKYQTIQYDPPETKLP [SNF5] | 2.92 ± 0.04
LPNEMSQNDGFVIIRGS [RPO31] | 3.23 ± 0.18
LPNIYPSTRCKLKLLRM [RPT2] | 1.37 ± 0.076
LPNQFPLKIHRTPYLTS [SWI1] | 1.65 ± 0.074

Sequence | protein stability index
LPSDRCSKAMGDLASLV [RPP1] | 3.15 ± 0.12
LPSGVLSRGDDEVTIRR [SMC3] | 3.2 ± 0.069
LPVMESLDSCTAAFTAM [YJR042W/NUP85] | 2.54 ± 0.071
LQDELKELQLEKESVEK [SMC3] | 2.7 ± 0.26
LQETLNKSTSSEAEYSK [YIL149C/MLP2] | 3.27 ± 0.062
LQKKVASILLALTQMDQ [RPB3] | 2.16 ± 0.15
LQQKQRDLILKKGEYAR [SMC3] | 2.5 ± 0.29
LQRASSKMGAPWCVKPE [ITC1] | 3.33 ± 0.055
LQRKDYTSIVQCCEFMT [YML103C/NUP188] | 2.05 ± 0.079
LQSNSKLASTLEKISSS [SMC4] | 2.54 ± 0.037
LQYTALTGSPNNPLVQK [ARP7] | 2.34 ± 0.078
LRKSELEYYAMLSKTKV [RPL30] | 2.17 ± 0.07
LRLLEVTDDDRLWLKKV [POP8] | 1.35 ± 0.095
LRNYLTPNVREEKQKSY [PUP1] | 3.39 ± 0.085
LRRVNARYVIATSTKVS [RPL6A] | 1.25 ± 0.095
LRSRSFKSTESNISDEK [YMR129W/POM152] | 2.88 ± 0.27
LRWFELKPKLYYEQFRP [SIR3] | 2.71 ± 0.077
LSAPLSKELRAQYGIKA [RPL26A] | 3.48 ± 0.12
LSCEKITHYAVRGGNIE [RRI1] | 2.51 ± 0.08
LSDYNIQKESTLHLVLR [RPS31] | 2.23 ± 0.065
LSEEKEVIFTDVLKSQA [MCD1] | 3.13 ± 0.12
LSFSWAILLIINLTQTY [NUT1] | 2.24 ± 0.097
LSIAIVGKDTPFTIYDG [PRE5] | 2.78 ± 0.08
LSIRLTNQLKSLKGLQS [RPN8] | 2.62 ± 0.19

Sequence | protein stability index
LSISVPSDVNIDVMKSQ [SNU114] | 2.57 ± 0.053
LSKINAIQLDYSTANEY [RPN3] | 3.17 ± 0.085
LSKMENVNLDDYPDDSG [NAS6] | 2.83 ± 0.088
LSLKRTLTDILEDELYH [RPN4] | 3.47 ± 0.11
LSLMLESPNYCNALIHI [SRB4] | 1.72 ± 0.075
LSLTAFTKNEEKLLKEL [ITC1] | 2.29 ± 0.08
LSMRFQRETSGMIVISM [SRB8] | 1.54 ± 0.067
LSNFNADINLEESIRES [SIR3] | 2.75 ± 0.24
LSNLSKDIKANLSSNVN [YCS4] | 3.04 ± 0.06
LSNSNRFELHGDMTNSD [REC8] | 2.58 ± 0.14
LSQSSSYLETLTALGKE [MED2] | 2.66 ± 0.084
LSSAGAKSTVETFISSM [RIP1] | 2.86 ± 0.072
LSSHSSTNSNSKPSTAS [RPN4] | 2.93 ± 0.059
LSTTPTKSNRRVSHSDT [SIR4] | 3.33 ± 0.088
LSVEIGVLTDISSLIGG [NUT1] | 1.89 ± 0.25
LTAIPILLEPIYEVDIT [SNU114] | 1.94 ± 0.054
LTFHTLKKANIIYHTTF [YLR018C/POM34] | 2 ± 0.05
LTSSKSVIVSQFCAFDS [SIN4] | 1.98 ± 0.1
LTVSIKIALMNIPKPLN [RGR1] | 1.54 ± 0.059
LTYAQQQLNKQRQDFER [SNF6] | 2.17 ± 0.083
LVADGVFYAELNEFFTR [RPS3] | 3.08 ± 0.077
LVALKRNADELSSYQKK [PRE5] | 2.68 ± 0.043
LVDLVSHFSPDIKAAVD [ITC1] | 2.09 ± 0.076
LVEVEDEKIEAIKKKEK [SRB7] | 3.05 ± 0.094
